Laboratory results as given in patent US20250361299A1 (published 2025).
Blank lines part the entries; values can stand above or below the binder they belong to.

Legend:
Recombinant human EGFR [1] = molecular target: T1, Recombinant human EGFR (human, UniProt P00533 25-645); assay: ELISA; with uPA
Human CD3 protein [2] = molecular target: T2, Human CD3 protein (human, UniProt P07766 23-126); assay: ELISA; with uPA
T2 chain: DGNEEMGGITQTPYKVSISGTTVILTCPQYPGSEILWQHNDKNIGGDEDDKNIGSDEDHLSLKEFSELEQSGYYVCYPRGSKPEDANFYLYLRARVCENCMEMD

Recombinant human EGFR [3] = molecular target: T1, Recombinant human EGFR; assay: ELISA; without uPA
Human CD3 protein [4] = molecular target: T2, Human CD3 protein; assay: ELISA; without uPA

EC50 (Recombinant human EGFR [1]): 0.0186 µg/mL
EC50 (Human CD3 protein [2]): 0.67 µg/mL
B1: 1.6.1M-Pa proBiTE after uPA digestion (bispecific antibody)
heavy: SDNHGGGGSEVQLVESGGGLVQPGGSLRLSCAASGFTFNTYAMNWVRQAPGKGLEWVARIRSKYNNYATYYADSVKGRFTISRDDSKNTLYLQMNSLRAEDTAVYYCARHGNFGSSYVSYFAYWGQGTTVTVSSASTKGPSVFPLAPSSKSTSGGTAALGCLVKDYFPEPVTVSWNSGALTSGVHTFPAVLQSSGLYSLSSVVTVPSSSLGTQTYICNVNHKPSNTKVDKKVEPKSCPPCPAPEAAGAPSVFLFPPKPKDTLMISRTPEVTCVVVDVSHEDPEVKFNWYVDGVEVHNAKTKPREEQYNSTYRVVSVLTVLHQDWLNGKEYKCKVSNKALPAPIEKTISKAKGQPREPQVYTLPPSRDELTKNQVSLLCLVKGFYPSDIAVEWESNGQPENNYKTTPPVLDSDGSFFLHSKLTVDKSRWQQGNVFSCSVMHEALHNHYTQKSLSLSPGK
light: QVQLQESGPGLVKPSETLSLTCTVSGGSVSSGDYYWTWIRQSPGKGLEWIGHIYYSGNTNYNPSLKSRLTISIDTSKTQFSLKLSSVTAADTAIYYCVRDRVTGAFDIWGQGTMVTVSSGGGGSGGGGSGGGGSGGGGSDIQMTQSPSSLSASVGDRVTITCQASQDISNYLNWYQQKPGKAPKLLIYDASNLETGVPSRFSGSGSGTDFTFTISSLQPEDIATYFCQHFDHLPLAFGGGTKVEIKGGGGSGGGGSGGGGSGGGGSEIVVTQSPATLSVSPGERATLSCRSSTGAVTTSNYANWVQQKPGQAPRGLIGGANKRAPGVPARFSGSLSGDEATLTISSLQSEDFAVYYCALWYSNLWVFGQGTKLEIKRTVAAPSVFIFPPSDEQLKSGTASVVCLLNNFYPREAKVQWKVDNALQSGNSQESVTEQDSKDSTYSLSSTLTLSKADYEKHKVYACEVTHQGLSSPVTKSFNRGECPPCPAPEAAGAPSVFLFPPKPKDTLMISRTPEVTCVVVDVSHEDPEVKFNWYVDGVEVHNAKTKPREEQYNSTYRVVSVLTVLHQDWLNGKEYKCKVSNKALPAPIEKTISKAKGQPREPQVYTLPPSRDELTKNQVSLLCLVKGFYPSDIAVEWESNGQPENNYKTTPPVLDSDGSFFLHSKLTVDKSRWQQGNVFSCSVMHEALHNHYTQKSLSLSPGK

EC50 (Recombinant human EGFR [3]): 0.244 µg/mL
EC50 (Human CD3 protein [4]): 6.57 µg/mL
B2: 1.4.3M-Pa proBiTE (bispecific antibody)
heavy: QDGNEEMGGIGGGSQDGNEEMGGGGGSGGGSGLSGRSDNHGGSEVQLVESGGGLVQPGGSLRLSCAASGFTFNTYAMNWVRQAPGKGLEWVARIRSKYNNYATYYADSVKGRFTISRDDSKNTLYLQMNSLRAEDTAVYYCARHGNFGSSYVSYFAYWGQGTTVTVSSGGGSSGGGGSGGGGSQVQLQESGPGLVKPSETLSLTCTVSGGSVSSGDYYWTWIRQSPGKGLEWIGHIYYSGNTNYNPSLKSRLTISIDTSKTQFSLKLSSVTAADTAIYYCVRDRVTGAFDIWGQGTMVTVSSASTKGPSVFPLAPSSKSTSGGTAALGCLVKDYFPEPVTVSWNSGALTSGVHTFPAVLQSSGLYSLSSVVTVPSSSLGTQTYICNVNHKPSNTKVDKKVEPKSCPPCPAPEAAGGPSVFLFPPKPKDTLMISRTPEVTCVVVDVSHEDPEVKFNWYVDGVEVHNAKTKPREEQYNSTYRVVSVLTVLHQDWLNGKEYKCKVSNKALPAPIEKTISKAKGQPREPQVYTLPPSRDELTKNQVSLLCLVKGFYPSDIAVEWESNGQPENNYKTTPPVLDSDGSFFLHSKLTVDKSRWQQGNVFSCSVMHEALHNHYTQKSLSLSPGK
light: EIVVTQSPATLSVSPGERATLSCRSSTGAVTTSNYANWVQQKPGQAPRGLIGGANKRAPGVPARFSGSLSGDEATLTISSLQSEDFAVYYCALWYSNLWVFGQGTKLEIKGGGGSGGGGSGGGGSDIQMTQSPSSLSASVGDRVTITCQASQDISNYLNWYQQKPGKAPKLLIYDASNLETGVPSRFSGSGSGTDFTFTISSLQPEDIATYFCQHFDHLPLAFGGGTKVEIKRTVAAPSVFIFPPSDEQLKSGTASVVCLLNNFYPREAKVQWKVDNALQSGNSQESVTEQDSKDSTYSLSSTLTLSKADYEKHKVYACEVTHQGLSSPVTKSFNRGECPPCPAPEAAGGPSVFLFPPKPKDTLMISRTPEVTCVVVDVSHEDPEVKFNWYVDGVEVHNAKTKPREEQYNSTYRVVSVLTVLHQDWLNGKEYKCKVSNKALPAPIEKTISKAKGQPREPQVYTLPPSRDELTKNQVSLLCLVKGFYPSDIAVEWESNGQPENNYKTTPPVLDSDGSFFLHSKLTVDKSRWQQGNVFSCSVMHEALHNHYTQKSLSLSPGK
